Results: paper PMC8158037, “Staphylococcus aureus N-terminus formylated δ-toxin tends to form amyloid fibrils, while the deformylated δ-toxin tends to form functional oligomer complexes” (Virulence, 2021)
No end group written: not given here. *: point of attachment. For = O=C*

B1: PSMα3, synthetic peptide (peptide)
chain: For-MEFVAKLFKFFKDLLGKFLGNN
notes: source: synthetic peptide (Sangon Biotech, purity > 95%)
B2: PSMα2, synthetic peptide (peptide)
chain: For-MGIIAGIIKFIKGLIEKFTGK
notes: as for B1
B4: PSMα1 (secreted by S. aureus MW2) (peptide)
chain: MGIIAGIIKVIKSLIEQFTGK
notes: also called phenol-soluble modulin α1
B5: PSMα2 (secreted by S. aureus MW2) (peptide)
chain: MGIIAGIIKFIKGLIEKFTGK
notes: also called phenol-soluble modulin α2
B6: PSMα3 (secreted by S. aureus MW2) (peptide)
chain: MEFVAKLFKFFKDLLGKFLGNN
notes: also called phenol-soluble modulin α3
B8: PSMα1, synthetic peptide (peptide)
chain: For-MGIIAGIIKVIKSLIEQFTGK
notes: as for B1

How the values were obtained:
Test in all cases: co-IP
Settings in all cases: both partners purified
[1] = molecular target: T1, N-terminus formylated δ-toxin, synthetic peptide (Staphylococcus aureus, N-formylmethionine at the N-terminus (fM))
T1 construct: also called fδ-toxin

[2] = molecular target: T2, deformylated δ-toxin, synthetic peptide (Staphylococcus aureus)
T2 construct: also called dfδ-toxin

PSMα1, synthetic peptide = molecular target: B8
PSMα2, synthetic peptide = molecular target: B2
PSMα3, synthetic peptide = molecular target: B1
[3] = molecular target: T3, δ-toxin (secreted by S. aureus MW2 and its ΔPSMα strain) (Staphylococcus aureus MW2, N-terminal methionine formylated in part of the peptides (fδ-toxin) and deformylated in the rest (dfδ-toxin); Aggregate1 more than 50% fδ-toxin, Aggregate2 more than 85% dfδ-toxin)
T3 construct: also called PSMγ; δ-hemolysin

[4] = molecular target: B4
[5] = molecular target: B5
[6] = molecular target: B6

Measured: binding result

B1
binds: [1] | [2] | PSMα1, synthetic peptide | PSMα2, synthetic peptide

B2
binds: PSMα3, synthetic peptide | [1] | [2] | PSMα1, synthetic peptide

B3: PSMα4 (secreted by S. aureus MW2) (peptide)
chain: MAIVGTIIKIIKAIIDIFAK
notes: also called phenol-soluble modulin α4
binds: [3] | [4] | [5] | [6]

B4
binds: [3] | [5] | [6]

B5
binds: [3] | [4] | [6]

B6
binds: [3] | [4] | [5]

B7: PSMα4, synthetic peptide (peptide)
chain: For-MAIVGTIIKIIKAIIDIFAK
notes: as for B1
binds: PSMα3, synthetic peptide | [1] | [2] | PSMα1, synthetic peptide | PSMα2, synthetic peptide

B8
binds: PSMα3, synthetic peptide | [1] | [2] | PSMα2, synthetic peptide
